83 variants from the RNAGym collection of RNA variant scans (doi:10.1073/pnas.2313332121) can be followed below.

B1: TPR 5TU (parent)
chain: GGAUCUUCUCGAUCUAACAAAAAAGACAAAUCUGCCACAAAGCUUGAGAGCAUCUUCGGAUGCAGAGGCGGCAGCCUUCGGUGGCGCGAUAGCGCCAACGUUCUCAACUAUGACACGCAAAACGCGUGCUCCGUUGAAUGGAGUUUAUCAUG

Fewer inactive variants are shown than the library holds.

In the data set the parent is B1. Briefly: polymerase ribozyme fitness, log enrichment relative to wild type (log ratio); higher = more active; in vitro selection for triplet polymerase activity. The gist of the method: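 PCR was used to build mutant libraries for each subunit of a heterodimeric triplet polymerase ribozyme, which were then transcribed. A single in vitro selection round, in triplicate, used a frozen incubation at −7 °C and recovered extended constructs by gel excision, streptavidin beads and RT-PCR. Fitness is the logarithm of genotype enrichment relative to wild-type enrichment, averaged over replicates with inverse-variance weights. The logarithm is base 2, and after Illumina sequencing only genotypes with ≥10 input reads and ≥1 read per output were kept.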
Regarding U77A C87U A98C C103A C125U U135G, the “polymerase ribozyme fitness (log ratio)” value was no more than -4.2.
Turning to C76A C96U U145G, the “polymerase ribozyme fitness (log ratio)” value is -0.785.
Take C76A U145C: the “polymerase ribozyme fitness (log ratio)” value was -0.484.
Consider C79A C93A C95U, for which the “polymerase ribozyme fitness (log ratio)” value is no more than -4.2.
As for U77G G81A A97G C99G U101C G141U A142G, the “polymerase ribozyme fitness (log ratio)” value was no more than -4.2.
In the case of C76G G88A G136A U139G, the “polymerase ribozyme fitness (log ratio)” value is no more than -4.2.
Consider C79A U82A C96A A107U U139A, for which the “polymerase ribozyme fitness (log ratio)” value is no more than -4.2.
Take C79A G86A: the “polymerase ribozyme fitness (log ratio)” value was no more than -4.2.
Turning to C79A A91U A107C G124C U144C, the “polymerase ribozyme fitness (log ratio)” value is no more than -4.2.
In the case of G80U C85A, the “polymerase ribozyme fitness (log ratio)” value was -2.27.
The figure for G80C G86U is -3.37; for G80A C114U A137C it is -3.92; for C76U G143A it is -1.28.
Regarding C76G A91C, the “polymerase ribozyme fitness (log ratio)” value is no more than -4.2.
As to C76A U135C, the “polymerase ribozyme fitness (log ratio)” value was -1.96.
Consider C75U U78C G84A, for which the “polymerase ribozyme fitness (log ratio)” value was -1.65.
Take G80A G124A: the “polymerase ribozyme fitness (log ratio)” value was 0.289.
G80A G128U: the “polymerase ribozyme fitness (log ratio)” value was -3.18.
For the variant U77G C103G, the “polymerase ribozyme fitness (log ratio)” value is no more than -4.2.
On to C76A C95U, for which the “polymerase ribozyme fitness (log ratio)” value was determined as 0.252.
In the case of C76U C96U A97G C99U C103G, the “polymerase ribozyme fitness (log ratio)” value was no more than -4.2.
As for C76G C87A U111A, the “polymerase ribozyme fitness (log ratio)” value is no more than -4.2.
As to C76A A119U U135C C149G, the “polymerase ribozyme fitness (log ratio)” value is no more than -4.2.
Take C76U G84A U101A: the “polymerase ribozyme fitness (log ratio)” value was -0.872.
As to C76G U78C C93U C103G A137G, the “polymerase ribozyme fitness (log ratio)” value is no more than -4.2.
For the variant U77G G141A, the “polymerase ribozyme fitness (log ratio)” value is -4.18.
In the case of G81A A89C, the “polymerase ribozyme fitness (log ratio)” value was -0.165.
For the variant C76G C103G U104G U135C, the “polymerase ribozyme fitness (log ratio)” value was no more than -4.2.
Take C76U C105G: the “polymerase ribozyme fitness (log ratio)” value is -3.71.
As for C76G G88C, the figure is no more than -4.2.
Take C75U U145C U146G: the “polymerase ribozyme fitness (log ratio)” value is -0.419.
As for C76U G88A C99A C103A, the figure is no more than -4.2; as for C75U U144C, -0.607; as for C76G G84U C116A, no more than -4.2.
On to U77A G88A, for which the “polymerase ribozyme fitness (log ratio)” value was no more than -4.2.
For C76G C87G U102G C108A, the “polymerase ribozyme fitness (log ratio)” value is no more than -4.2.
For C76A U104C, the “polymerase ribozyme fitness (log ratio)” value is -3.57.
For the variant C79G G84A G100A A110C, the “polymerase ribozyme fitness (log ratio)” value was no more than -4.2.
On to C76U G94A, for which the “polymerase ribozyme fitness (log ratio)” value came to 1.11.
U77C C96A: the “polymerase ribozyme fitness (log ratio)” value is -2.82.
Regarding G80C C131G, the “polymerase ribozyme fitness (log ratio)” value was -4.04.
Turning to G80U C105U G136U, the “polymerase ribozyme fitness (log ratio)” value was -1.49.
On to U78G U127C, for which the “polymerase ribozyme fitness (log ratio)” value was no more than -4.2.
Take C76G U127C A150U: the “polymerase ribozyme fitness (log ratio)” value is no more than -4.2.
Consider C79U C85U A115C, for which the “polymerase ribozyme fitness (log ratio)” value was no more than -4.2.
As for C75U G84U U101C, the figure is -1.45; as for U78G U90G C131A, no more than -4.2.
Regarding C76U U82C A89G, the “polymerase ribozyme fitness (log ratio)” value is -1.3.
Turning to G80A G83A A106U C116G U139C G143A, the “polymerase ribozyme fitness (log ratio)” value was no more than -4.2.
In the case of C76U C85U C99G, the “polymerase ribozyme fitness (log ratio)” value is -1.05.
In the case of C76A G84A U134G, the “polymerase ribozyme fitness (log ratio)” value is -2.67.
C75U U139A G140C: the “polymerase ribozyme fitness (log ratio)” value is -4.11.
Turning to C76G G84U U145C, the “polymerase ribozyme fitness (log ratio)” value is no more than -4.2.
On to U77A U90A G133U A142C, for which the “polymerase ribozyme fitness (log ratio)” value is no more than -4.2.
Take C76U G88U: the “polymerase ribozyme fitness (log ratio)” value was no more than -4.2.
As to C76U C99A, the “polymerase ribozyme fitness (log ratio)” value is -1.37.
Take G80A A89G G117U: the “polymerase ribozyme fitness (log ratio)” value was -1.48.
Turning to U78G G94U, the “polymerase ribozyme fitness (log ratio)” value is -3.47.
For the variant C76U G94A C105U, the “polymerase ribozyme fitness (log ratio)” value was -0.337.
With C75U G92C C132A, the “polymerase ribozyme fitness (log ratio)” value was no more than -4.2.
Turning to C76A C96A G128C, the “polymerase ribozyme fitness (log ratio)” value was no more than -4.2.
As for U77G G86U C93G C96A C118G U145G, the figure is no more than -4.2; as for G80U C118A A119G, -1.3.
Turning to C76U G84U C125U G141U, the “polymerase ribozyme fitness (log ratio)” value was -3.46.
For C76A C96G, the “polymerase ribozyme fitness (log ratio)” value is -1.51.
Regarding U78A C93A G94U, the “polymerase ribozyme fitness (log ratio)” value was -4.16.
The figure for U78A C93A G124U is no more than -4.2.
Regarding C76G G80C C105U, the “polymerase ribozyme fitness (log ratio)” value is no more than -4.2.
Take U78C U146C: the “polymerase ribozyme fitness (log ratio)” value was found to be 0.315.
Consider C76A G83U A106G, for which the “polymerase ribozyme fitness (log ratio)” value is -3.45.
For the variant C79G G124U U139C, the “polymerase ribozyme fitness (log ratio)” value was no more than -4.2.
For the variant C79A G80A G81A G88U, the “polymerase ribozyme fitness (log ratio)” value was no more than -4.2.
For the variant C79U C93U C95U, the “polymerase ribozyme fitness (log ratio)” value is -4.08.
U77G C99A G140A: the “polymerase ribozyme fitness (log ratio)” value is no more than -4.2.
For G80U G86U G94C C105A U134A, the “polymerase ribozyme fitness (log ratio)” value was no more than -4.2.
For the variant C76G A91U A106G U135A, the “polymerase ribozyme fitness (log ratio)” value was no more than -4.2.
For C76U C95A C96U U151G, the “polymerase ribozyme fitness (log ratio)” value was no more than -4.2.
In the case of C79G G88U U134C A142U, the “polymerase ribozyme fitness (log ratio)” value was no more than -4.2.
C76G G84A C118A G141C: the “polymerase ribozyme fitness (log ratio)” value was no more than -4.2.
As for C76A C125G U144G, the “polymerase ribozyme fitness (log ratio)” value was -2.22.
For the variant C79U A121U, the “polymerase ribozyme fitness (log ratio)” value was -1.2.
As for U78A A91U, the “polymerase ribozyme fitness (log ratio)” value is no more than -4.2.
Turning to C79G G88C G92A C125G, the “polymerase ribozyme fitness (log ratio)” value is no more than -4.2.
